In the data set the test system is Escherichia coli TOP10. In words: shrunken log2 fold change of peptide-encoding DNA abundance (4.5 h post-induction vs induction); higher = less antimicrobial activity (less host growth inhibition). The following applies: time post-induction: 4.5 h; library: site-saturation at positions 5, 18, 19, 20.
Take RRIRRRPPRLPRPRPRPSEAPRP: the “shrunken log2 fold change” value was -0.0295.

As to RRIRRRPPRLPRPRPRPNSHPRP, the “shrunken log2 fold change” value is -0.11.

Regarding RRIRQRPPRLPRPRPRPYFWPRP, the “shrunken log2 fold change” value is -0.101.

On to RRIRTRPPRLPRPRPRPTVGPRP, for which the “shrunken log2 fold change” value came out at 0.155.

RRIRRRPPRLPRPRPRPASIPRP: the “shrunken log2 fold change” value was -0.0206.

In the case of RRIRQRPPRLPRPRPRPNQPPRP, the “shrunken log2 fold change” value was -0.0757.

On to RRIRPRPPRLPRPRPRPVVNPRP, for which the “shrunken log2 fold change” value is -0.229.

Take RRIRRRPPRLPRPRPRPPCRPRP: the “shrunken log2 fold change” value was 1.09.

Take RRIRRRPPRLPRPRPRPSWTPRP: the “shrunken log2 fold change” value came to 0.46.

As to RRIRYRPPRLPRPRPRPKQPPRP, the “shrunken log2 fold change” value turned out to be 0.102.

Turning to RRIRTRPPRLPRPRPRPCRFPRP, the “shrunken log2 fold change” value is -0.265.

As to RRIRARPPRLPRPRPRPPCWPRP, the “shrunken log2 fold change” value was found to be 0.967.

With RRIRQRPPRLPRPRPRPECGPRP, the “shrunken log2 fold change” value was determined as 0.238.

For RRIRYRPPRLPRPRPRPVKFPRP, the “shrunken log2 fold change” value was -0.133.

Turning to RRIRARPPRLPRPRPRPHDHPRP, the “shrunken log2 fold change” value was -0.0299.

Take RRIRQRPPRLPRPRPRPVMSPRP: the “shrunken log2 fold change” value was -0.215.

For RRIRTRPPRLPRPRPRPVMMPRP, the “shrunken log2 fold change” value was -0.199.

For RRIRTRPPRLPRPRPRPLVEPRP, the “shrunken log2 fold change” value was -0.0326.

Consider RRIRNRPPRLPRPRPRPFWFPRP, for which the “shrunken log2 fold change” value turned out to be 0.195.

Take RRIRKRPPRLPRPRPRPEMKPRP: the “shrunken log2 fold change” value amounted to 0.682.

Consider RRIRNRPPRLPRPRPRPQHIPRP, for which the “shrunken log2 fold change” value is -0.114.

With RRIRSRPPRLPRPRPRPLCKPRP, the “shrunken log2 fold change” value is -0.137.

Regarding RRIRRRPPRLPRPRPRPVSEPRP, the “shrunken log2 fold change” value came to 0.34.

RRIRRRPPRLPRPRPRPQCDPRP: the “shrunken log2 fold change” value was determined as 0.333.

For RRIRLRPPRLPRPRPRPFAIPRP, the “shrunken log2 fold change” value was 0.0494.

RRIRLRPPRLPRPRPRPDTHPRP: the “shrunken log2 fold change” value is -0.543.

As to RRIRWRPPRLPRPRPRPQFIPRP, the “shrunken log2 fold change” value is -0.211.

As to RRIRVRPPRLPRPRPRPDCGPRP, the “shrunken log2 fold change” value was -0.0382.

As to RRIRSRPPRLPRPRPRPPVYPRP, the “shrunken log2 fold change” value worked out at 0.0599.

Take RRIRNRPPRLPRPRPRPKMSPRP: the “shrunken log2 fold change” value was -0.064.

For RRIRIRPPRLPRPRPRPCVQPRP, the “shrunken log2 fold change” value is 1.47.

For RRIRIRPPRLPRPRPRPVGQPRP, the “shrunken log2 fold change” value is -0.195.

RRIRWRPPRLPRPRPRPMYMPRP: the “shrunken log2 fold change” value is 0.0903.

As to RRIRFRPPRLPRPRPRPWGKPRP, the “shrunken log2 fold change” value is -0.221.

As for RRIRCRPPRLPRPRPRPFVFPRP, the “shrunken log2 fold change” value is -0.26.

With RRIRTRPPRLPRPRPRPHANPRP, the “shrunken log2 fold change” value was -0.254.

On to RRIRLRPPRLPRPRPRPHMLPRP, for which the “shrunken log2 fold change” value was -0.264.

On to RRIRNRPPRLPRPRPRPCWDPRP, for which the “shrunken log2 fold change” value turned out to be 0.125.

On to RRIRTRPPRLPRPRPRPRQVPRP, for which the “shrunken log2 fold change” value was -0.0471.

Turning to RRIRKRPPRLPRPRPRPFTAPRP, the “shrunken log2 fold change” value is -0.291.

As to RRIRERPPRLPRPRPRPCCQPRP, the “shrunken log2 fold change” value was -0.485.

As to RRIRLRPPRLPRPRPRPWWSPRP, the “shrunken log2 fold change” value was -0.0019.

As to RRIRARPPRLPRPRPRPLYIPRP, the “shrunken log2 fold change” value is -0.293.

As for RRIRSRPPRLPRPRPRPRHAPRP, the “shrunken log2 fold change” value was 0.39.

In the case of RRIRLRPPRLPRPRPRPQQLPRP, the “shrunken log2 fold change” value is -0.106.

On to RRIRPRPPRLPRPRPRPYWQPRP, for which the “shrunken log2 fold change” value was found to be 0.0184.

Regarding RRIRYRPPRLPRPRPRPMADPRP, the “shrunken log2 fold change” value was -0.0453.

Consider RRIRSRPPRLPRPRPRPCDPPRP, for which the “shrunken log2 fold change” value came to 0.0442.

As for RRIRSRPPRLPRPRPRPPHWPRP, the “shrunken log2 fold change” value was 0.5.

RRIRPRPPRLPRPRPRPCMQPRP: the “shrunken log2 fold change” value was -0.358.

As to RRIRRRPPRLPRPRPRPWCTPRP, the “shrunken log2 fold change” value is -0.0123.

As for RRIRIRPPRLPRPRPRPQEFPRP, the “shrunken log2 fold change” value was determined as 0.0204.

In the case of RRIRQRPPRLPRPRPRPINIPRP, the “shrunken log2 fold change” value was -0.21.

In the case of RRIRNRPPRLPRPRPRPTDTPRP, the “shrunken log2 fold change” value is -0.08.

Consider RRIRWRPPRLPRPRPRPTDTPRP, for which the “shrunken log2 fold change” value was -0.0769.

For the sequence RRIRFRPPRLPRPRPRPTFVPRP, the “shrunken log2 fold change” value was -0.051.

Consider RRIRSRPPRLPRPRPRPMAVPRP, for which the “shrunken log2 fold change” value is -0.000652.

Consider RRIRRRPPRLPRPRPRPVMPPRP, for which the “shrunken log2 fold change” value turned out to be 0.338.

Take RRIRGRPPRLPRPRPRPQNFPRP: the “shrunken log2 fold change” value was 0.136.

Consider RRIRNRPPRLPRPRPRPATCPRP, for which the “shrunken log2 fold change” value was -0.00428.

Regarding RRIRPRPPRLPRPRPRPSEGPRP, the “shrunken log2 fold change” value is -0.148.

Turning to RRIRVRPPRLPRPRPRPANMPRP, the “shrunken log2 fold change” value was found to be 0.00908.

Regarding RRIRMRPPRLPRPRPRPEEVPRP, the “shrunken log2 fold change” value was 0.00922.

With RRIRLRPPRLPRPRPRPCRTPRP, the “shrunken log2 fold change” value was -0.66.

Regarding RRIRQRPPRLPRPRPRPIVTPRP, the “shrunken log2 fold change” value was -0.364.

In the case of RRIRSRPPRLPRPRPRPQFMPRP, the “shrunken log2 fold change” value was -0.274.

On to RRIRWRPPRLPRPRPRPNESPRP, for which the “shrunken log2 fold change” value is -0.0337.

As for RRIRCRPPRLPRPRPRPPKRPRP, the “shrunken log2 fold change” value was 0.797.

Take RRIRARPPRLPRPRPRPRTWPRP: the “shrunken log2 fold change” value is 0.669.

Take RRIRWRPPRLPRPRPRPADFPRP: the “shrunken log2 fold change” value was -0.0275.

Consider RRIRFRPPRLPRPRPRPCMYPRP, for which the “shrunken log2 fold change” value is -0.418.

In the case of RRIRVRPPRLPRPRPRPFGIPRP, the “shrunken log2 fold change” value was -0.371.

For RRIRCRPPRLPRPRPRPYCRPRP, the “shrunken log2 fold change” value is -0.0628.

For the sequence RRIRARPPRLPRPRPRPHNDPRP, the “shrunken log2 fold change” value is -0.34.

Consider RRIRFRPPRLPRPRPRPDQIPRP, for which the “shrunken log2 fold change” value was -0.0948.

As for RRIRMRPPRLPRPRPRPHDRPRP, the “shrunken log2 fold change” value is 0.0623.

Turning to RRIRIRPPRLPRPRPRPHITPRP, the “shrunken log2 fold change” value was -0.66.

On to RRIRRRPPRLPRPRPRPSLYPRP, for which the “shrunken log2 fold change” value is -0.35.

Regarding RRIRNRPPRLPRPRPRPYPWPRP, the “shrunken log2 fold change” value was -0.0963.

Consider RRIRRRPPRLPRPRPRPMRAPRP, for which the “shrunken log2 fold change” value is 0.905.

RRIRIRPPRLPRPRPRPIDTPRP: the “shrunken log2 fold change” value is -0.00177.

RRIRFRPPRLPRPRPRPDQTPRP: the “shrunken log2 fold change” value is 0.0441.

Regarding RRIRVRPPRLPRPRPRPKCVPRP, the “shrunken log2 fold change” value is -0.0921.

As to RRIRWRPPRLPRPRPRPKNNPRP, the “shrunken log2 fold change” value is -0.136.

As to RRIRCRPPRLPRPRPRPVSHPRP, the “shrunken log2 fold change” value was -0.0571.

For the sequence RRIRQRPPRLPRPRPRPVYPPRP, the “shrunken log2 fold change” value is -0.0407.

On to RRIRCRPPRLPRPRPRPQCVPRP, for which the “shrunken log2 fold change” value is -0.0975.

With RRIRMRPPRLPRPRPRPGIWPRP, the “shrunken log2 fold change” value stood at 0.379.

For RRIRPRPPRLPRPRPRPSQYPRP, the “shrunken log2 fold change” value is -0.415.

Take RRIRIRPPRLPRPRPRPFTNPRP: the “shrunken log2 fold change” value is -0.16.

Take RRIRLRPPRLPRPRPRPWEEPRP: the “shrunken log2 fold change” value is -0.0678.

With RRIRHRPPRLPRPRPRPLAIPRP, the “shrunken log2 fold change” value is -0.346.

Turning to RRIRNRPPRLPRPRPRPEWSPRP, the “shrunken log2 fold change” value was found to be 0.406.

As for RRIRVRPPRLPRPRPRPSVQPRP, the “shrunken log2 fold change” value is -0.0929.

For the sequence RRIRRRPPRLPRPRPRPCRKPRP, the “shrunken log2 fold change” value is -0.444.

Turning to RRIRKRPPRLPRPRPRPVTSPRP, the “shrunken log2 fold change” value came to 0.0678.

On to RRIRTRPPRLPRPRPRPAAEPRP, for which the “shrunken log2 fold change” value amounted to 0.351.

RRIRHRPPRLPRPRPRPSCYPRP: the “shrunken log2 fold change” value is -1.1.

Regarding RRIRHRPPRLPRPRPRPSGFPRP, the “shrunken log2 fold change” value amounted to 0.112.

For the sequence RRIRLRPPRLPRPRPRPVHGPRP, the “shrunken log2 fold change” value was found to be 0.0748.

For the sequence RRIRPRPPRLPRPRPRPAGMPRP, the “shrunken log2 fold change” value was -0.00962.

With RRIRCRPPRLPRPRPRPQEGPRP, the “shrunken log2 fold change” value was -0.0193.

For the sequence RRIRDRPPRLPRPRPRPSQRPRP, the “shrunken log2 fold change” value is -0.0409.

As to RRIRFRPPRLPRPRPRPMAVPRP, the “shrunken log2 fold change” value was -0.0113.

Take RRIRFRPPRLPRPRPRPRWLPRP: the “shrunken log2 fold change” value worked out at 0.269.

For RRIRSRPPRLPRPRPRPASQPRP, the “shrunken log2 fold change” value was found to be 0.0365.

Turning to RRIRFRPPRLPRPRPRPSDMPRP, the “shrunken log2 fold change” value was -0.11.

Regarding RRIRRRPPRLPRPRPRPFLFPRP, the “shrunken log2 fold change” value was determined as 0.0785.

Regarding RRIRSRPPRLPRPRPRPKMQPRP, the “shrunken log2 fold change” value turned out to be 0.055.

For RRIRRRPPRLPRPRPRPDLQPRP, the “shrunken log2 fold change” value is 0.0255.

On to RRIRVRPPRLPRPRPRPCDYPRP, for which the “shrunken log2 fold change” value is -0.845.

As for RRIRARPPRLPRPRPRPWTEPRP, the “shrunken log2 fold change” value is -0.181.

As to RRIRQRPPRLPRPRPRPGWDPRP, the “shrunken log2 fold change” value came out at 0.135.

Consider RRIRARPPRLPRPRPRPQYQPRP, for which the “shrunken log2 fold change” value is -0.243.

In the case of RRIRNRPPRLPRPRPRPIKPPRP, the “shrunken log2 fold change” value was -0.00904.

On to RRIRARPPRLPRPRPRPTDSPRP, for which the “shrunken log2 fold change” value was determined as 0.00832.

For RRIRDRPPRLPRPRPRPIMIPRP, the “shrunken log2 fold change” value is -0.408.

As for RRIRFRPPRLPRPRPRPRACPRP, the “shrunken log2 fold change” value is 0.165.

In the case of RRIRWRPPRLPRPRPRPGEHPRP, the “shrunken log2 fold change” value amounted to 0.232.

For the sequence RRIRPRPPRLPRPRPRPSPWPRP, the “shrunken log2 fold change” value stood at 0.0349.

As for RRIRCRPPRLPRPRPRPEGSPRP, the “shrunken log2 fold change” value is -0.043.

In the case of RRIRERPPRLPRPRPRPEQFPRP, the “shrunken log2 fold change” value is -0.0286.

On to RRIRGRPPRLPRPRPRPGPSPRP, for which the “shrunken log2 fold change” value is 1.05.

On to RRIRSRPPRLPRPRPRPVHQPRP, for which the “shrunken log2 fold change” value stood at 0.0888.

Consider RRIRSRPPRLPRPRPRPDQRPRP, for which the “shrunken log2 fold change” value amounted to 0.0901.

Source of the values: the supplement of paper PMC9112550, “Optimization of the antimicrobial peptide Bac7 by deep mutational scanning” (BMC Biology, 2022).
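Also: peptides expressed intracellularly from a pBAD plasmid library in pooled LB shake-flask culture, induced with 0.3% L-arabinose, DNA abundance read by NGS, three biological replicates, DESeq2 with apeglm shrinkage.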
